# Results taken from patent US20130060011A1 (published 2013).
# How the values were obtained:
# human MCSP = human MCSP (human, UniProt Q6UVK1 30-2322); test: cell-based or functional assay
# human CD3 = human CD3 (human, UniProt P07766 23-207); test: cell-based or functional assay
# Chain of human CD3 (P07766 23-207): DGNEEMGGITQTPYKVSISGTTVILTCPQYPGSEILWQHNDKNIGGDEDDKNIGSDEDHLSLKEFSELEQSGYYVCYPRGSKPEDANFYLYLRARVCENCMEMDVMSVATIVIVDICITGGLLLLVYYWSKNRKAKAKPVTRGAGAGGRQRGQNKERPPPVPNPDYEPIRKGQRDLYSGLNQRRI
# Chain of human MCSP (Q6UVK1 30-2322): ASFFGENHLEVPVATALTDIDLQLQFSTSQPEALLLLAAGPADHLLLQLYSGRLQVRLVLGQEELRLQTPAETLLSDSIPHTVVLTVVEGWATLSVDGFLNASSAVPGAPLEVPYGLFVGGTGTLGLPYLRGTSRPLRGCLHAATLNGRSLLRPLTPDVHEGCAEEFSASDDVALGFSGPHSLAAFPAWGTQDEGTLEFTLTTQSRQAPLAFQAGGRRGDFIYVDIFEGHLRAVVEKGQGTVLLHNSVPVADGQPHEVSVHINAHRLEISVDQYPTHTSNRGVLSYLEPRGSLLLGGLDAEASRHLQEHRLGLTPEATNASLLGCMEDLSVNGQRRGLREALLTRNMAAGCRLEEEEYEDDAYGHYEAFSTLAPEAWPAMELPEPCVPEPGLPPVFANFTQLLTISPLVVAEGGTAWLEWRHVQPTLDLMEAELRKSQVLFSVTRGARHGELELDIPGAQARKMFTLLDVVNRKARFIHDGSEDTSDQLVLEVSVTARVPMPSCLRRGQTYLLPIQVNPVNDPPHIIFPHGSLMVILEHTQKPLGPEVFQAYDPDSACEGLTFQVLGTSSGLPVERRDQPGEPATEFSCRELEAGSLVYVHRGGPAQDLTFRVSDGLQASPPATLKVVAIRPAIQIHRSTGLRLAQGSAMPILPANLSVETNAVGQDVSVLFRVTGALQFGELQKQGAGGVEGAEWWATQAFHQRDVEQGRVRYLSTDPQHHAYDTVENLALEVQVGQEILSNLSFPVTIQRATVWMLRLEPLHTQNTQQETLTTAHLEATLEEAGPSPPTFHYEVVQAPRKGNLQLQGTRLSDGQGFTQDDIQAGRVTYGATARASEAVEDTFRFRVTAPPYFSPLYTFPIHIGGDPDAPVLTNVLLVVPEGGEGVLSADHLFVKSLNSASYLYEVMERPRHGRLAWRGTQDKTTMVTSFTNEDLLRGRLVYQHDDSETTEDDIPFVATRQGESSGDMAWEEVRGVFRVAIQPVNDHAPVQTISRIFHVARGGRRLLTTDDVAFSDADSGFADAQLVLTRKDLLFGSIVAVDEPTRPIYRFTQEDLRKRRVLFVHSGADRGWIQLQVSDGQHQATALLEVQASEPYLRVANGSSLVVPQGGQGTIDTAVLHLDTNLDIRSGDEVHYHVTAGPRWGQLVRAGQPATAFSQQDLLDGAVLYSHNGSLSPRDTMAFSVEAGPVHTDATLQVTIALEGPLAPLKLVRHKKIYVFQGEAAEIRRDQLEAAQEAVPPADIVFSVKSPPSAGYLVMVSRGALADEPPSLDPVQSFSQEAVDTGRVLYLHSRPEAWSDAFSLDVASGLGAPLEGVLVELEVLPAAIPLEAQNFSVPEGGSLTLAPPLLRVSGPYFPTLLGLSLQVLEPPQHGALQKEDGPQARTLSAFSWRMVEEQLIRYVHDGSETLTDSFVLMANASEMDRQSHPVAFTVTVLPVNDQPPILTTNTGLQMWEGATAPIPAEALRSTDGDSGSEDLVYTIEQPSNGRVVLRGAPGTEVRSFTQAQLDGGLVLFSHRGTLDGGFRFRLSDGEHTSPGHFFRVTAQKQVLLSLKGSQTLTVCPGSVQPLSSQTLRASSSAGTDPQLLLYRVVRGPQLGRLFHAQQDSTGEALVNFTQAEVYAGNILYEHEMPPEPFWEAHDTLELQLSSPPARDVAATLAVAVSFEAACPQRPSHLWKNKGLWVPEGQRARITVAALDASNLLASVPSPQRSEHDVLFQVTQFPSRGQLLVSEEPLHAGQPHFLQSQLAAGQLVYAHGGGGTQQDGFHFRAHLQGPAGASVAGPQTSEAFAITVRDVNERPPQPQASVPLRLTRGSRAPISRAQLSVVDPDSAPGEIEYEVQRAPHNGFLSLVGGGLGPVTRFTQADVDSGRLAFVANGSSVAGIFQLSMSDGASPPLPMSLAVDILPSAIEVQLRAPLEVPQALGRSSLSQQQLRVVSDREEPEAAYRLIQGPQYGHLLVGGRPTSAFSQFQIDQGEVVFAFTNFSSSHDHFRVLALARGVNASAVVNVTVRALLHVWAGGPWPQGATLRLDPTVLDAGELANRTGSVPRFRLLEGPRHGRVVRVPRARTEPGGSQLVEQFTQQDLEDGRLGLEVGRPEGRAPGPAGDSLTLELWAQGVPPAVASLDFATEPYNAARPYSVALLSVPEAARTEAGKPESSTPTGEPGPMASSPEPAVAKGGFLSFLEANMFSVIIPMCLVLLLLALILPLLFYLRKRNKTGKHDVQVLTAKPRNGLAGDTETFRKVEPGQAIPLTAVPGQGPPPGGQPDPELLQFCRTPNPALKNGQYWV
Binder,"Killing (as measured by LDH release) of MV-3 tumor cells upon co-culture with human PBMCs (E:T ratio=10:1), 24 hours; EC50 (human MCSP) [nM]","Killing (as measured by LDH release) of MV-3 tumor cells upon co-culture with human PBMCs (E:T ratio=10:1), 24 hours; EC50 (human CD3) [nM]"
hu Fab (MCSP)-Crossfab (CD3) (bispecific antibody) heavy: EVQLQESGPGLVKPSQSLSLTCSVTGYSITSGYYWNWIRQFPGNKLEWMGYITYDGSNNYNPSLKNRISITRDTSKNQFFLKLNSVTTEDTATYYCADFDYWGQGTTLTVSSASTKGPSVFPLAPSSKSTSGGTAALGCLVKDYFPEPVTVSWNSGALTSGVHTFPAVLQSSGLYSLSSVVTVPSSSLGTQTYICNVNHKPSNTKVDKKVEPKSCDGGGGSGGGGSDIQMTQSPSSLSASVGDRVTITCRASQDIRNYLNWYQQKPGKAPKLLIYYTSRLESGVPSRFSGSGSGTDYTLTISSLQPEDFATYYCQQGNTLPWTFGQGTKVEIKSSASTKGPSVFPLAPSSKSTSGGTAALGCLVKDYFPEPVTVSWNSGALTSGVHTFPAVLQSSGLYSLSSVVTVPSSSLGTQTYICNVNHKPSNTKVDKKVEPKSC light: DIVLTQSPSSLSASLGDRVTISCSASQGIRNYLNWYQQRPDGTVKLLIYYTSSLHSGVPSRFSGSGSGTDYSLTISNLEPEDIATYYCQQYSKLPWTFGGGTKLEIKRTVAAPSVFIFPPSDEQLKSGTASVVCLLNNFYPREAKVQWKVDNALQSGNSQESVTEQDSKDSTYSLSSTLTLSKADYEKHKVYACEVTHQGLSSPVTKSFNRGEC EVQLVESGGGLVQPGGSLRLSCAASGYSFTGYTMNWVRQAPGKGLEWVALINPYKGVSTYNQKFKDRFTISVDKSKNTAYLQMNSLRAEDTAVYYCARSGYYGDSDWYFDVWGQGTLVTVSSASVAAPSVFIFPPSDEQLKSGTASVVCLLNNFYPREAKVQWKVDNALQSGNSQESVTEQDSKDSTYSLSSTLTLSKADYEKHKVYACEVTHQGLSSPVTKSFNRGEC,0.0254,0.0254
(scFv)2 (antiMCSP/anti huCD3e) (bispecific antibody) scFv: DIVLTQSPSSLSASLGDRVTISCSASQGIRNYLNWYQQRPDGTVKLLIYYTSSLHSGVPSRFSGSGSGTDYSLTISNLEPEDIATYYCQQYSKLPWTFGGGTKLEIKGGGGSGGGGSGGGGSEVQLQESGPGLVKPSQSLSLTCSVTGYSITSGYYWNWIRQFPGNKLEWMGYITYDGSNNYNPSLKNRISITRDTSKNQFFLKLNSVTTEDTATYYCADFDYWGQGTTLTVSSGGGGSEVQLVESGGGLVQPGGSLRLSCAASGYSFTGYTMNWVRQAPGKGLEWVALINPYKGVSTYNQKFKDRFTISVDKSKNTAYLQMNSLRAEDTAVYYCARSGYYGDSDWYFDVWGQGTLVTVSSVEGGSGGSGGSGGSGGVDDIQMTQSPSSLSASVGDRVTITCRASQDIRNYLNWYQQKPGKAPKLLIYYTSRLESGVPSRFSGSGSGTDYTLTISSLQPEDFATYYCQQGNTLPWTFGQGTKVEIKHHHHHH,0.057,0.057
